# B1: C-terminal fragment of medin (peptide)
# peptide: EVTGIITQGARNFGSVQFVASYK
# notes: C-terminal fragment of medin / MFG-E8, identified in tissue extracts by mass spectrometry; also called CT-medin; C-terminal medin fragment; source: synthetic peptide (Intavis Multipep RSi solid phase synthesis, purity >90%)
# Target: the molecule itself
# Test: Thioflavin T fluorescence seeding assay; 10 µM monomeric Met-Aβ or CT-medin with 0.5 µM sonicated pre-formed seeds of either peptide; 50 mM Tris pH 8, 25 µM ThT, 30 °C
protein,measurement,value
B1,binding result,binds

# — publication PMC9712113, “Medin co-aggregates with vascular amyloid-β in Alzheimer’s disease” (Nature, 2022)
